Source: patent US20260167693A1 (ANGELES THERAPEUTICS, published 2026)

T1: CD19-ECD-GGSG-NLuc-AcV5 (human)
T1 construct: also called CD19-GGSG-NLuc-AcV5; Flag-CD19-GGSG-NLuc-AcV5
T1 chain: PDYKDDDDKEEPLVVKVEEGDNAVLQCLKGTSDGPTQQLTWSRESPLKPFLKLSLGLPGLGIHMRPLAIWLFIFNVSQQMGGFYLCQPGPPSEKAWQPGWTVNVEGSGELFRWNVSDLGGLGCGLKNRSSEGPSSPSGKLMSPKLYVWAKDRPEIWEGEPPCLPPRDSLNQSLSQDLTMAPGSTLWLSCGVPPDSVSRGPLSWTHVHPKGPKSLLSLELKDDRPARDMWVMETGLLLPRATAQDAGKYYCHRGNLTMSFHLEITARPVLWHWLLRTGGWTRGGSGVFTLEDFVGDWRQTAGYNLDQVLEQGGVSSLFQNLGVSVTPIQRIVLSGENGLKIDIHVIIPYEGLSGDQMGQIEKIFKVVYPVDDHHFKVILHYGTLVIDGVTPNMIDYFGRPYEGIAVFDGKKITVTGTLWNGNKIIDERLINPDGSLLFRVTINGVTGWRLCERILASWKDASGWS


Target: T1, CD19-ECD-GGSG-NLuc-AcV5
Experiment: NLuc binding assay, SIR on Jurkat-NFAT-GFP cells

Binder	CD19-GGSG-NLuc (RLU)
CD8SP-FMC63-vL-V5-[hTCRb-KACIAH]-F-P2A-SP-FMC63-vH-Myc-[hTCRa-CSDVP]-F-F2A-PAC (010616-C01)[SEQ ID NO:1200] (other, Polyprotein PRT 3435; also called 102615-C08) TCR beta: DIQMTQTTSSLSASLGDRVTISCRASQDISKYLNWYQQKPDGTVKLLIYHTSRLHSGVPSRFSGSGSGTDYSLTISNLEQEDIATYFCQQGNTLPYTFGGGTKLEITGKPIPNPLLGLDSTGSGEDLKNVFPPEVAVFEPSKAEIAHTQKATLVCLATGFYPDHVELSWWVNGKEVHSGVCTDPQPLKEQPALNDSRYCLSSRLRVSATFWQNPRNHFRCQVQFYGLSENDEWTQDRAKPVTQIVSAEAWGRADCGITSASYHQGVLSATILYEILLGKATLYAVLVSALVLMAMVKRKDSRG TCR alpha: EVKLQESGPGLVAPSQSLSVTCTVSGVSLPDYGVSWIRQPPRKGLEWLGVIWGSETTYYNSALKSRLTIIKDNSKSQVFLKMNSLQTDDTAIYYCAKHYYYGGSYAMDYWGQGTSVTVSSEQKLISEEDGSGIQNPDPAVYQLRDSKSSDKSVCLFTDFDSQTNVSQSKDSDVYITDKCVLDMRSMDFKSNSAVAWSNKSDFACANAFNNSIIPEDTFFPSSDVPCDVKLVEKSFETDTNLNFQNLSVIGFRILLLKVAGFNLLMTLRLWSS	6840
CD8SP-FMC63-vL-V5-[hTCRb-KACIAH]-F-P2A-SP-FMC63-vH-[GSG-hTCRa-T48C-opt]-F-F2A-PAC (other, Polyprotein PRT 12436; also called 110916-M04) TCR beta: DIQMTQTTSSLSASLGDRVTISCRASQDISKYLNWYQQKPDGTVKLLIYHTSRLHSGVPSRFSGSGSGTDYSLTISNLEQEDIATYFCQQGNTLPYTFGGGTKLEITGKPIPNPLLGLDSTGSGEDLKNVFPPEVAVFEPSKAEIAHTQKATLVCLATGFYPDHVELSWWVNGKEVHSGVCTDPQPLKEQPALNDSRYCLSSRLRVSATFWQNPRNHFRCQVQFYGLSENDEWTQDRAKPVTQIVSAEAWGRADCGITSASYHQGVLSATILYEILLGKATLYAVLVSALVLMAMVKRKDSRG TCR alpha: EVKLQESGPGLVAPSQSLSVTCTVSGVSLPDYGVSWIRQPPRKGLEWLGVIWGSETTYYNSALKSRLTIIKDNSKSQVFLKMNSLQTDDTAIYYCAKHYYYGGSYAMDYWGQGTSVTVSSGSGIQNPDPAVYQLRDSKSSDKSVCLFTDFDSQTNVSQSKDSDVYITDKCVLDMRSMDFKSNSAVAWSNKSDFACANAFNNSIIPEDTFFPSPESSCDVKLVEKSFETDTNLNFQNLSVIGFRILLLKVAGFNLLMTLRLWSS	20500
CD8SP-FMC63-vL-V5-[hTCRb-KACIAH]-F-P2A-SP-FMC63-vH-Myc4-[hTCRα-SD]-F-F2A-PAC (other, Polyprotein PRT 12444; also called 120916-R01) TCR beta: DIQMTQTTSSLSASLGDRVTISCRASQDISKYLNWYQQKPDGTVKLLIYHTSRLHSGVPSRFSGSGSGTDYSLTISNLEQEDIATYFCQQGNTLPYTFGGGTKLEITGKPIPNPLLGLDSTGSGEDLKNVFPPEVAVFEPSKAEIAHTQKATLVCLATGFYPDHVELSWWVNGKEVHSGVCTDPQPLKEQPALNDSRYCLSSRLRVSATFWQNPRNHFRCQVQFYGLSENDEWTQDRAKPVTQIVSAEAWGRADCGITSASYHQGVLSATILYEILLGKATLYAVLVSALVLMAMVKRKDSRG TCR alpha: EVKLQESGPGLVAPSQSLSVTCTVSGVSLPDYGVSWIRQPPRKGLEWLGVIWGSETTYYNSALKSRLTIIKDNSKSQVFLKMNSLQTDDTAIYYCAKHYYYGGSYAMDYWGQGTSVTVSSEQKLISEEDLGSGIQNPDPAVYQLRDSKSSDKSVCLFTDFDSQTNVSQSKDSDVYITDKTVLDMRSMDFKSNSAVAWSNKSDFACANAFNNSIIPEDTFFPSSDSSCDVKLVEKSFETDTNLNFQNLSVIGFRILLLKVAGFNLLMTLRLWSS	2660
CD8SP-FMC63-vL-[hTCRb-S57C-opt]-F-P2A-SP-FMC63-vH-Myc-[hTCRa-CSDVP]-F-F2A-PAC (other, Polyprotein PRT 12438; also called 110916-P02) TCR beta: DIQMTQTTSSLSASLGDRVTISCRASQDISKYLNWYQQKPDGTVKLLIYHTSRLHSGVPSRFSGSGSGTDYSLTISNLEQEDIATYFCQQGNTLPYTFGGGTKLEITEDLKNVFPPEVAVFEPSEAEISHTQKATLVCLATGFYPDHVELSWWVNGKEVHSGVCTDPQPLKEQPALNDSRYCLSSRLRVSATFWQNPRNHFRCQVQFYGLSENDEWTQDRAKPVTQIVSAEAWGRADCGFTSESYQQGVLSATILYEILLGKATLYAVLVSALVLMAMVKRKDSRG TCR alpha: EVKLQESGPGLVAPSQSLSVTCTVSGVSLPDYGVSWIRQPPRKGLEWLGVIWGSETTYYNSALKSRLTIIKDNSKSQVFLKMNSLQTDDTAIYYCAKHYYYGGSYAMDYWGQGTSVTVSSEQKLISEEDGSGIQNPDPAVYQLRDSKSSDKSVCLFTDFDSQTNVSQSKDSDVYITDKCVLDMRSMDFKSNSAVAWSNKSDFACANAFNNSIIPEDTFFPSSDVPCDVKLVEKSFETDTNLNFQNLSVIGFRILLLKVAGFNLLMTLRLWSS	2180
CD8SP-FMC63-vL-[hTCRb-R18A22]-F-P2A-SP-FMC63-vH-Myc4-[hTCRa-SD]-F-F2A-PAC (other, Polyprotein PRT 12439; also called 112116-R08) TCR beta: DIQMTQTTSSLSASLGDRVTISCRASQDISKYLNWYQQKPDGTVKLLIYHTSRLHSGVPSRFSGSGSGTDYSLTISNLEQEDIATYFCQQGNTLPYTFGGGTKLEITEDLKNVFPPEVAVFEPSRAEIAHTQKATLVCLATGFYPDHVELSWWVNGKEVHSGVSTDPQPLKEQPALNDSRYCLSSRLRVSATFWQNPRNHFRCQVQFYGLSENDEWTQDRAKPVTQIVSAEAWGRADCGFTSESYQQGVLSATILYEILLGKATLYAVLVSALVLMAMVKRKDSRG TCR alpha: EVKLQESGPGLVAPSQSLSVTCTVSGVSLPDYGVSWIRQPPRKGLEWLGVIWGSETTYYNSALKSRLTIIKDNSKSQVFLKMNSLQTDDTAIYYCAKHYYYGGSYAMDYWGQGTSVTVSSEQKLISEEDLGSGIQNPDPAVYQLRDSKSSDKSVCLFTDFDSQTNVSQSKDSDVYITDKTVLDMRSMDFKSNSAVAWSNKSDFACANAFNNSIIPEDTFFPSSDSSCDVKLVEKSFETDTNLNFQNLSVIGFRILLLKVAGFNLLMTLRLWSS	7570
CD8SP-FMC63-vL-[hTCRb-R18]-F-P2A-SP-FMC63-vH-Myc4-[hTCRa-SD]-F-F2A-PAC (other, Polyprotein PRT 12442; also called 112116-U08) TCR beta: DIQMTQTTSSLSASLGDRVTISCRASQDISKYLNWYQQKPDGTVKLLIYHTSRLHSGVPSRFSGSGSGTDYSLTISNLEQEDIATYFCQQGNTLPYTFGGGTKLEITEDLKNVFPPEVAVFEPSRAEISHTQKATLVCLATGFYPDHVELSWWVNGKEVHSGVSTDPQPLKEQPALNDSRYCLSSRLRVSATFWQNPRNHFRCQVQFYGLSENDEWTQDRAKPVTQIVSAEAWGRADCGFTSESYQQGVLSATILYEILLGKATLYAVLVSALVLMAMVKRKDSRG TCR alpha: EVKLQESGPGLVAPSQSLSVTCTVSGVSLPDYGVSWIRQPPRKGLEWLGVIWGSETTYYNSALKSRLTIIKDNSKSQVFLKMNSLQTDDTAIYYCAKHYYYGGSYAMDYWGQGTSVTVSSEQKLISEEDLGSGIQNPDPAVYQLRDSKSSDKSVCLFTDFDSQTNVSQSKDSDVYITDKTVLDMRSMDFKSNSAVAWSNKSDFACANAFNNSIIPEDTFFPSSDSSCDVKLVEKSFETDTNLNFQNLSVIGFRILLLKVAGFNLLMTLRLWSS	3910
CD8SP-FMC63-vL-Myc2-[hTCRb-R18A22]-F-P2A-SP-FMC63-vH-Myc4-[hTCRa-SD]-F-F2A-PAC (other, Polyprotein PRT 12440; also called 112116-S08) TCR beta: DIQMTQTTSSLSASLGDRVTISCRASQDISKYLNWYQQKPDGTVKLLIYHTSRLHSGVPSRFSGSGSGTDYSLTISNLEQEDIATYFCQQGNTLPYTFGGGTKLEITEQKLISEEDLGSGEDLKNVFPPEVAVFEPSRAEIAHTQKATLVCLATGFYPDHVELSWWVNGKEVHSGVSTDPQPLKEQPALNDSRYCLSSRLRVSATFWQNPRNHFRCQVQFYGLSENDEWTQDRAKPVTQIVSAEAWGRADCGFTSESYQQGVLSATILYEILLGKATLYAVLVSALVLMAMVKRKDSRG TCR alpha: EVKLQESGPGLVAPSQSLSVTCTVSGVSLPDYGVSWIRQPPRKGLEWLGVIWGSETTYYNSALKSRLTIIKDNSKSQVFLKMNSLQTDDTAIYYCAKHYYYGGSYAMDYWGQGTSVTVSSEQKLISEEDLGSGIQNPDPAVYQLRDSKSSDKSVCLFTDFDSQTNVSQSKDSDVYITDKTVLDMRSMDFKSNSAVAWSNKSDFACANAFNNSIIPEDTFFPSSDSSCDVKLVEKSFETDTNLNFQNLSVIGFRILLLKVAGFNLLMTLRLWSS	4480
